Test results taken from patent US20090203610A1, “METHODS OF TREATING OBESITY OR DIABETES USING NT-4/5” (RINAT NEUROSCIENCE CORPORATION, priority 2004, published 2009).

Experiments:
db/db mice [1] = experiment: Body weight, daily then intermittent s.c. dosing to day 29 in db/db mice (Example 2); assay type: in vivo
Experimental: Female db/db mice (12 weeks old) were divided into four groups and were subcutaneously injected with vehicle (PBS) or NT-4/5 at doses of 2 mg/kg, 5 mg/kg, or 10 mg/kg daily from day 0 to day 4, and then on day 8, day 11, day 15, day 18, day 22, day 25, and day 29. […] In addition, the body weights in NT-4/5 in all treated groups continued to be reduced during the treatment period.

human TrkA = molecular target: T1, human TrkA (Homo sapiens, UniProt P04629); experiment: Receptor tyrosine phosphorylation in trkA expressing cell line; assay type: cell-based
T1 construct: expressed in transfected cells
Text: (§1) Assays of TrkB specific activation by pegylated NT-4/5: Stable cell lines expressing human TrkA, TrkB or TrkC were used to determine the functional activity, i.e. receptor phosphorylation, of NT-4/5 and pegylated NT-4/5 as previously described (Sadick et al. Experimental Cell Research 234: 354-361, 1997).
as §1, with “and different forms of” for “and”

[2] = test system: NONcNZO-10 polygenic obese mice; experiment: Pegylated NT-4/5 cysteine mutant on body weight, food intake, glucose, triglyceride in NONcNZO-10 mice (Example 6); assay type: in vivo
Experimental: Test animals: 30 male NONcNZO-10 polygenic obese mice at 10 weeks of age weighing in the range of 27-32 g were used in this study.
Administration of NT-4/5 and pegylated NT-4/5: The mice were divided into 4 groups of equivalent body weight distribution (7-8 mice per group). Each group received on the first day (day 1) of the study one and the only dose of either vehicle alone, 1 mg/kg of NT-4/5 or 1 mg/kg of PEG-NT4-S50C, respectively. A final group received a daily subcutaneous dose of 1 mg/kg of NT-4/5 from day 1 to day 5, then from day 7 to day 9. On day 9 after the treatment started, blood samples were collected to determine serum glucose and triglyceride levels. Body weight and food intake were monitored 5 days a week through out the entire study.

db/db mice [3] = experiment: Body weight after single injection of NT-4/5 or pegylated NT-4/5 in db/db mice (Example 7, Table 21); assay type: in vivo; conditions: for Body weight expressed in percentage of baseline value: single 5 mg/kg dose on day 1
Experimental: Test animals: 30 female db/db mice at 7 weeks of age weighing in the range of 27-34 g were used in this study.
Administration of NT-4/5 and pegylated NT-4/5: Wild type NT-4/5 was obtained from Genentech Inc. The mice were divided into 5 groups of equivalent body weight distribution (6 mice per group). Each group received on the first day (day 1) of the study one and the only dose of either vehicle, 5 mg/kg of NT-4/5 produced as described above, 5 mg/kg of 2PEG-NT4-G1S, or 5 mg/kg of 1PEG-NT4-G1S. 2PEG-NT4-G1S represents one PEG molecule was conjugated to each NT-4/5 monomer in a NT-4/5 dimer, and 1PEG-NT4-G1S represents one PEG molecule was conjugated to only one monomer of the NT-4/5 dimer. 2PEG-NT4-G1S and 1PEG-NT4-G1S were separated by ion exchange. Four days before starting the treatment (day −4), blood samples were collected from the mice as described previously for the determination of baseline levels of serum glucose. On day 4 after the treatment started, blood samples were collected again to determine serum glucose level. Body weight and food intake were monitored 5 days a week through out the entire study.

DIO mice = experiment: Weekly intravenous pegylated G1S NT-4/5 versus WT NT-4/5 on body weight and food intake in DIO mice (Example 8); assay type: in vivo
Text: Test animals: Mice with diet induced obesity (DIO) were used in this study. 29 male C57BL/6J mice were weaned at 4 weeks of age. Immediately after weaning, they were put on 58% high fat diet (D12331i, Research Diet) through out the study. The DIO mice at 13 weeks of age weighing in the range of 28-40 g were used in this study.
Administration of NT-4/5 and pegylated NT-4/5: NT-4/5 was obtained from Genentech Inc. or produced as described in U.S. Pat. No. 6,184,360. Pegylated NT-4/5 was produced as follows: A mutation was introduced by changing the glycine 1 position of mature human NT-4/5 sequence to serine, resulting in a mutant form of NT-4/5 (NT4-G1S). NT4-G1S protein was expressed in E. coli, solubilized, extracted, purified and refolded as described above. Refolded NT4-G1S was dialyzed into 50 mM sodium phosphate buffer at pH 6.8 and treated with 1.5 molar excess sodium meta-periodate for 10 minutes to oxidize the N-terminal serine (or threonine) residue to an aldehyde. Remaining periodate was removed by dialysis against 30 mM sodium acetate at pH 4.5. The exact concentration of NT4-G1S was determined and a 2 to 4 fold molar excess of 20K-m-PEG-HZ (methoxy polyethylene glycol hydrazide) was added. The reaction was incubated at 37° C. for several days with gentle agitation. Unconjugated PEG, pegylated NT4-G1S and non-pegylated NT4-G1S were separated via ion exchange or size exclusion chromatography.
The mice were divided into 3 groups of equivalent body weight and baseline blood glucose distribution (7-8 mice per group). Each group received four weekly intravenous doses (on day 1, 8, 15 and 22) of either vehicle, 2 mg/kg of NT-4/5 or 2 mg/kg of pegylated G1S NT-4/5 respectively. Body weight and food intake were monitored 5 days per week through out the entire study.

[4] = single subcutaneous injection of 1 mg/kg, day 9

T1 sequence (P04629 33-796): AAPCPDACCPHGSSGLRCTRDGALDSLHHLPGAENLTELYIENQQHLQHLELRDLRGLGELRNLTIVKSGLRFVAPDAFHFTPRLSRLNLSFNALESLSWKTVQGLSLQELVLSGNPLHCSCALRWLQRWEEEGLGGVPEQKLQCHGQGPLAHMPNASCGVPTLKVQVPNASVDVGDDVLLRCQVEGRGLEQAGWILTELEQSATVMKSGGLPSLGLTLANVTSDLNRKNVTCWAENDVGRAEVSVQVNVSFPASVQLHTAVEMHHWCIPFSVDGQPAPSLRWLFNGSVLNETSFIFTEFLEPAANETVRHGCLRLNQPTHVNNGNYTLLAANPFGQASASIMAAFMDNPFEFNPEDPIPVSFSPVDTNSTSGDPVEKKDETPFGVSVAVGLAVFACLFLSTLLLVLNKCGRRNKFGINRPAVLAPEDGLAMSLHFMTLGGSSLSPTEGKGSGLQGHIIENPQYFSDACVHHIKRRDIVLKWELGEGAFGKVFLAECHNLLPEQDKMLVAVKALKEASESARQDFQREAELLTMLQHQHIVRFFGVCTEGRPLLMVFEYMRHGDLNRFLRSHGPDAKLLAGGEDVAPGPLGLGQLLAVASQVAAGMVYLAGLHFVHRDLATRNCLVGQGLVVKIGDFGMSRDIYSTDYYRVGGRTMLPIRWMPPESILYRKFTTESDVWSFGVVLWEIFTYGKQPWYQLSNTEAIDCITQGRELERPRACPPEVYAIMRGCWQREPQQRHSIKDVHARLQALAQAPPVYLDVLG

B1: NT-4/5: mature human neurotrophin-4/5 (SEQ ID NO:1), obtained from Genentech or produced in E. coli (protein, listed as Homo sapiens)
chain: GVSETAPASRRGELAVCDAVSGWVTDRRTAVDLRGREVEVLGEVPAAGGSPLRQYFFETRCKADNAEEGGPGAGGGGCRGVDRRHWVSECKAKQSYVRALTADAQGRVGWRWIRIDTACVCTLLSRTGRA
body weight (db/db mice [1]; 2, 5 or 10 mg/kg s.c. daily day 0-4, then days 8, 11, 15, 18, 22, 25, 29): reduced body weight in a dose dependent manner | body weight reduction (db/db mice [1]; day 31, 5 mg/kg and 10 mg/kg groups): about 20% | receptor tyrosine phosphorylation of trkA-expressing cell line (human TrkA): did not increase receptor tyrosine phosphorylation | triglyderide level reduction ([2]; daily dose of 1 mg/kg, on average, P<0.01): about 50% | blood glucose level reduction ([2]; daily dose of 1 mg/kg, on average, P<0.05): about 50% | Daily food intake ([2]; daily injection of 1 mg/kg): without affecting daily food intake | body weight ([2]; daily injection of 1 mg/kg): significantly reduced body weight | blood glucose level [2, 4]: did not significantly reduce | triglyceride level [2, 4]: did not significantly reduce | Body weight expressed in percentage of baseline value (db/db mice [3]; Day 1): 100.0 % of baseline | Body weight expressed in percentage of baseline value (db/db mice [3]; Day 2): 97.7 % of baseline | Body weight expressed in percentage of baseline value (db/db mice [3]; Day 3): 100.5 % of baseline | Body weight expressed in percentage of baseline value (db/db mice [3]; Day 4): 101.7 % of baseline | body weight growth (db/db mice [3]; single subcutaneous injection, 5 mg/kg, significantly): reduced the body weight growth | body weight, pairwise difference with the vehicle control group (DIO mice; 2 mg/kg i.v. on day 1, 8, 15, 22, Bonferroni posttests): significant pairwise differences | body weight with long term weekly dosing (DIO mice; 2 mg/kg i.v. weekly): more effective in maintaining lower body weight
